# Laboratory results as given in article PMC7264359, “AcrIF9 tethers non-sequence specific dsDNA to the CRISPR RNA-guided surveillance complex” (Nature Communications, 2020).
# B1: Cas7f (natural protein, Pseudomonas aeruginosa)
# chain: SKPILSTASVLAFERKLDPSDALMSAGAWAQRDASQEWPAVTVREKSVRGTISNRLKTKDRDPAKLDASIQSPNLQTVDVANLPSDADTLKVRFTLRVLGGAGTPSACNDAAYRDKLLQTVATYVNDQGFAELARRYAHNLANARFLWRNRVGAEAVEVRINHIRQGEVARAWRFDALAIGLRDFKADAELDALAELIASGLSGSGHVLLEVVAFARIGDGQEVFPSQELILDKGDKKGQKSKTLYSVRDAAAIHSQKIGNALRTIDTWYPDEDGLGPIAVEPYGSVTSQGKAYRQPKQKLDFYTLLDNWVLRDEAPAVEQQHYVIANLIRGGVFGEAEEK
# notes: Cas7f, backbone subunit of the type I-F Csy complex of Pseudomonas aeruginosa; Stood in the assay as a subunit of the Csy complex (six copies along the crRNA); also called Cas7.4f; Cas7.6f; source: E. coli BL21 (DE3), co-expressed with the other Csy genes, a synthetic CRISPR and AcrIF9; purified within the complex (Ni-NTA, Superdex 200)
# Columns and labels:
# [1] = target: type I-F CRISPR RNA-guided surveillance complex (Csy) (Pseudomonas aeruginosa) (UniProt Q02ML9); assay: cryo-EM structure; Csy–AcrIF9 complex co-expressed in E. coli and co-purified (Ni-NTA, Superdex 200 in 20 mM HEPES pH 7.5, 100 mM NaCl, 5% glycerol, 1 mM TCEP); nominal resolution ~3.9 Å
# [2] = target: the molecule itself; assay: as above
# Sequence of type I-F CRISPR RNA-guided surveillance complex (Csy) (Pseudomonas aeruginosa) (Q02ML9 whole entry, chain 1 of 3): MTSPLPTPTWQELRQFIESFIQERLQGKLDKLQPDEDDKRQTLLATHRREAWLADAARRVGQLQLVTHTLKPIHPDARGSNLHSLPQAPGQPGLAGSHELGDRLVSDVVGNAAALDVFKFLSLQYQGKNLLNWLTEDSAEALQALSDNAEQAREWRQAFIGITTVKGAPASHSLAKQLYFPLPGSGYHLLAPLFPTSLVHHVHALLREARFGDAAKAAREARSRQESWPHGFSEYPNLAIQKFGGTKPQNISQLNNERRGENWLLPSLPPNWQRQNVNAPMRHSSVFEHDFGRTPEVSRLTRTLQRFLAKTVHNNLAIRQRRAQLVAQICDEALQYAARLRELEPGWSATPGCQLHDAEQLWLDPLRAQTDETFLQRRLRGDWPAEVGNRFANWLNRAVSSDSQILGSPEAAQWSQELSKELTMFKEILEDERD
# Sequence of type I-F CRISPR RNA-guided surveillance complex (Csy) (Pseudomonas aeruginosa) (Q02MM0 whole entry, chain 2 of 3, further chain): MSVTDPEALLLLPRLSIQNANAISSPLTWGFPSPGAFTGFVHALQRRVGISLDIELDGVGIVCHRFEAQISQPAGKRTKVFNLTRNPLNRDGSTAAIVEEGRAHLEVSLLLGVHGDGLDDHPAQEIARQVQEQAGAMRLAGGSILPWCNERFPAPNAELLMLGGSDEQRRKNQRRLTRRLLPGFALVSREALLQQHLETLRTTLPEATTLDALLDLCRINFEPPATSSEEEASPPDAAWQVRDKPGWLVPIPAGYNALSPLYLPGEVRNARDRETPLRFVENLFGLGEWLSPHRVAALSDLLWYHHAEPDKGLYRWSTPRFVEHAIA
# Sequence of type I-F CRISPR RNA-guided surveillance complex (Csy) (Pseudomonas aeruginosa) (Q02MM2 whole entry, chain 4 of 3, further chain): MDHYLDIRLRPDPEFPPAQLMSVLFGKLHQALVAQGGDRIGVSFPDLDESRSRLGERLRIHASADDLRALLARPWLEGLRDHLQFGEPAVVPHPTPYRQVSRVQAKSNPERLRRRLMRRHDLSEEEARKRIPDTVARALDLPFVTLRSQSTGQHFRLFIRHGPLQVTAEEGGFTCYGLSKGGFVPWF
Molecule,stoichiometry N [1],stoichiometry N [2]
"anti-CRISPR protein IF9 (AcrIF9), co-expressed with Csy (natural protein)",2,–
B1,–,6
